As a reminder, the Km is the concentration of substrate that gives half-maximal velocity.

Substrate in data set [1]: O=CC(=O)O
Briefly: purified protein. In kind it is biochemical, Saccharomyces cerevisiae. The conditions noted are these: 0.25 mM NADPH, 50 mM potassium phosphate pH 7.4, 30 C, substrate 0-40 mM.

Substrate in data set [2]: O=C(O)C(=O)CO
The data set can be described thus: purified protein. Format: biochemical, Saccharomyces cerevisiae. Conditions: 0.25 mM NADPH, 50 mM potassium phosphate pH 7.4, 30 C, substrate 0-40 mM.

B1: Gor1p (Saccharomyces cerevisiae S288C) (protein)
chain: MSKKPIVLKLGKDAFGDQAWGELEKIADVITIPESTTREQFLREVKDPQNKLSQVQVITRTARSVKNTGRFDEELALALPSSVVAVCHTGAGYDQIDVEPFKKRHIQVANVPDLVSNATADTHVFLLLGALRNFGIGNRRLIEGNWPEAGPACGSPFGYDPEGKTVGILGLGRIGRCILERLKPFGFENFIYHNRHQLPSEEEHGCEYVGFEEFLKRSDIVSVNVPLNHNTHHLINAETIEKMKDGVVIVNTARGAVIDEQAMTDALRSGKIRSAGLDVFEYEPKISKELLSMSQVLGLPHMGTHSVETRKKMEELVVENAKNVILTGKVLTIVPELQNEDWPNESKPLV
notes: C-terminal 6xHis tag, tag cut not mentioned, expressed in E. coli BL21(DE3), Ni-NTA purified
As for B1, the Km in data set [1] turned out to be 8.4 mM; in data set [2], 22.7 mM.

Source of the values: paper PMC6945034, “A Genetic Screen To Identify Genes Influencing the Secondary Redox Couple NADPH/NADP^+ in the Yeast Saccharomyces cerevisiae” (G3: Genes|Genomes|Genetics, 2019).
